# Paper PMC11448365 (Genes to Cells, 2023)
# B1: Irgb6-WT (wild-type Irgb6) (enzyme, mouse)
# chain: MAWASSFDAFFKNFKRESKIISEYDITLIMTYIEENKLQKAVSVIEKVLRDIESAPLHIAVTGETGAGKSTFINTLRGVGHEEKGAAPTGAIETTMKRTPYPHPKLPNVTIWDLPGIGTTNFTPQNYLTEMKFGEYDFFIIISATRFKENDAQLAKAIAQMGMNFYFVRTKIDSDLDNEQKFKPKSFNKEEVLKNIKDYCSNHLQESLDSEPPVFLVSNVDISKYDFPKLETKLLQDLPAHKRHVFSLSLQSLTEATINYKRDSLKQKVFLEAMKAGALATIPLGGMISDILENLDETFNLYRSYFGLDDASLENIAQDLNMSVDDFKVHLRFPHLFAEHNDESLEDKLFKYIKHISSVTGGPVAAVTYYRMAYYLQNLFLDTAANDAIALLNSKALFEKKVGPYISEPPEYWEA
# Target: the molecule itself
# Assay: mass photometry
protein,measurement,value
B1,stoichiometry N,2
